# Results taken from the Human Domainome abundance scans (Beltran et al. 2025).
# ± gives the uncertainty stated by the source.
# B1: F-BAR and double SH3 domains protein 1, residues 467 to 528; numbered along this chain, Q86WN1 (parent)
# chain: RALPCPAHVVFRYQAGREDELTITEGEWLEVIEEGDADEWVKARNQHGEVGFVPERYLNFPD
# Variants of: B1
# Assay: abundance fitness (aPCA) (normalised: wild type 0, dead -1); higher = more abundant; growth selection in yeast, the domain comes from the species named
# Conditions: Homo sapiens
row,Variant,abundance fitness
1,G35S,-0.07 ± 0.052
2,W40E,-0.196 ± 0.09
3,V53G,-0.624 ± 0.078
4,G16M,0.026 ± 0.071
5,G26V,-0.942 ± 0.15
6,G48V,-0.741 ± 0.092
7,I23K,-0.718 ± 0.097
8,V50N,-0.737 ± 0.25
9,L21E,-0.751 ± 0.18
10,I32E,-0.487 ± 0.078
11,P4R,-0.505 ± 0.076
12,V10D,-0.109 ± 0.13
13,R17I,-0.557 ± 0.14
14,A2R,0.053 ± 0.039
15,A43V,-0.056 ± 0.058
16,Q14Y,-0.241 ± 0.084
17,R44G,-0.898 ± 0.088
18,A7W,-0.98 ± 0.23
19,L3C,-0.121 ± 0.063
20,W28H,0.01 ± 0.1
21,V50R,-0.607 ± 0.071
22,Q46C,-0.018 ± 0.099
23,E34Q,-0.026 ± 0.062
24,G48M,-0.296 ± 0.076

row,Variant,abundance fitness
1,E49Y,-0.427 ± 0.14
2,Y13F,-0.06 ± 0.066
3,G51P,-0.952 ± 0.16
4,W40Y,0.079 ± 0.098
5,A7N,-0.521 ± 0.19
6,E18H,-0.531 ± 0.34
7,A7V,-0.454 ± 0.057
8,E18P,-0.062 ± 0.067
9,T24P,-0.879 ± 0.12
10,V10Q,-0.733 ± 0.29
11,I32D,-0.73 ± 0.15
12,D62M,-0.181 ± 0.18
13,V9A,0.002 ± 0.058
14,R56M,-0.126 ± 0.055
15,D19V,0.103 ± 0.056
16,V53T,-0.868 ± 0.13
17,D38C,-0.047 ± 0.068
18,H8T,-0.213 ± 0.067
19,F52D,-0.431 ± 0.1
20,R12F,-0.01 ± 0.07
21,P54L,-0.016 ± 0.04
22,G16F,-0.136 ± 0.083
23,E20G,-0.179 ± 0.062
24,P54C,-0.001 ± 0.071

row,Variant,abundance fitness
1,D62H,0.011 ± 0.13
2,Y57I,-0.309 ± 0.09
3,I32V,-0.07 ± 0.041
4,N45M,-0.891 ± 0.24
5,E55N,-0.055 ± 0.091
6,H8G,-0.651 ± 0.088
7,E39Q,-0.027 ± 0.078
8,G16T,-0.012 ± 0.1
9,P61D,-0.007 ± 0.099
10,G35C,-0.179 ± 0.15
11,K42F,-0.207 ± 0.079
12,T24H,0.036 ± 0.12
13,L58I,-0.088 ± 0.08
14,G48D,-0.217 ± 0.067
15,F11N,0.039 ± 0.083
16,T24D,0.087 ± 0.088
17,Y13H,-0.109 ± 0.11
18,A43N,-0.763 ± 0.21
19,G35E,-0.407 ± 0.089
20,V50H,-0.554 ± 0.12
21,A7S,-0.631 ± 0.074
22,E39D,-0.228 ± 0.094
23,V50I,-0.235 ± 0.12
24,P54F,-0.287 ± 0.075

row,Variant,abundance fitness
1,E25P,-0.069 ± 0.12
2,D36S,-0.045 ± 0.053
3,R44L,-0.342 ± 0.048
4,L58K,-1.01 ± 0.29
5,E39G,0.066 ± 0.064
6,A37R,0.141 ± 0.073
7,E33T,-0.305 ± 0.071
8,R17L,-0.375 ± 0.053
9,R12E,0.17 ± 0.12
10,V41R,-0.526 ± 0.079
11,H47G,0.051 ± 0.048
12,A2D,0.153 ± 0.095
13,E49Q,0.101 ± 0.073
14,E39A,-0.016 ± 0.052
15,D19R,-0.048 ± 0.039
16,L3N,-0.127 ± 0.082
17,D19P,-0.396 ± 0.087
18,C5F,-0.294 ± 0.12
19,E20P,-1.01 ± 0.17
20,A7K,-1.05 ± 0.18
21,H8L,-0.202 ± 0.044
22,F11W,-0.075 ± 0.049
23,G51K,-0.42 ± 0.28
24,E25D,-0.014 ± 0.17

row,Variant,abundance fitness
1,G48H,-0.34 ± 0.16
2,H8N,-0.392 ± 0.11
3,F11D,0.143 ± 0.092
4,L58V,-0.267 ± 0.062
5,Y13R,-0.226 ± 0.061
6,E20N,-0.39 ± 0.3
7,E55A,-0.042 ± 0.058
8,A37G,-0.05 ± 0.079
9,A15S,-0.146 ± 0.052
10,G48F,-0.293 ± 0.14
11,E27W,-0.911 ± 0.16
12,G26W,-0.474 ± 0.11
13,F52H,-0.199 ± 0.093
14,E34M,-0.085 ± 0.063
15,G26R,-0.558 ± 0.07
16,P4G,-0.333 ± 0.068
17,G51A,-0.691 ± 0.1
18,V41G,-0.72 ± 0.11
19,N59P,-0.977 ± 0.16
20,Q14T,-0.204 ± 0.069
21,W40A,-0.3 ± 0.076
22,A15K,-0.125 ± 0.092
23,Y57S,0.123 ± 0.058
24,R17G,-0.09 ± 0.052

row,Variant,abundance fitness
1,G16S,0.019 ± 0.055
2,P61A,-0.03 ± 0.065
3,A15R,-0.178 ± 0.043
4,D62L,-0.151 ± 0.053
5,F60L,-0.213 ± 0.041
6,Y13E,-0.959 ± 0.21
7,P61Q,0.081 ± 0.088
8,I23S,-0.719 ± 0.064
9,P61K,0.026 ± 0.11
10,L58S,-0.65 ± 0.059
11,R12W,-0.455 ± 0.096
12,F11C,0.014 ± 0.058
13,Y57H,0.208 ± 0.086
14,D36A,-0.165 ± 0.077
15,E34R,-0.044 ± 0.049
16,I23N,-1.18 ± 0.36
17,E25T,0.038 ± 0.095
18,P6D,-0.432 ± 0.14
19,D36R,-0.016 ± 0.05
20,F11T,0.069 ± 0.056
21,T22Q,-0.581 ± 0.12
22,E30I,-0.353 ± 0.14
23,R44E,-0.268 ± 0.071
24,P54E,-0.509 ± 0.11

row,Variant,abundance fitness
1,A43T,-0.409 ± 0.1
2,L21F,-0.588 ± 0.16
3,V9Y,-0.631 ± 0.15
4,Y13K,-0.16 ± 0.094
5,F60D,-0.768 ± 0.33
6,E39H,0.188 ± 0.1
7,T22V,-0.898 ± 0.1
8,V10Y,-0.118 ± 0.1
9,E33M,-0.266 ± 0.13
10,G35M,-0.202 ± 0.08
11,Q46G,-0.082 ± 0.061
12,V53M,-0.673 ± 0.11
13,V31Q,-1.03 ± 0.34
14,D36P,0.13 ± 0.055
15,T22C,-0.265 ± 0.14
16,A43G,-0.299 ± 0.078
17,A7P,-0.788 ± 0.12
18,W40H,-0.01 ± 0.085
19,P54H,-0.017 ± 0.077
20,R44T,-0.23 ± 0.081
21,T22E,-0.5 ± 0.11
